# According to PMC6353898 (Scientific Reports, 2019):
# Ends that are not written are not given here. * marks the point of attachment. FITC = O=C1OC2(c3ccc(O)cc3Oc3cc(O)ccc32)c2ccc(NC(=S)*)cc21; Ahx = NCCCCCC(=O)O
# Molecular target: T1, EGFR on A431 and MDA MB 468 cells (human (endogenous in A431 and MDA MB …, UniProt P00533 25-1210))
# T1 construct: also called Epidermal growth factor receptor; EGFR overexpressing cells; source: endogenous, overexpressed on A431 and MDA MB 468 cells
# Assay: flow cytometry on cells; A431, MDA MB 468 and HEK 293 cells; FITC labeled peptides 10 µM in HBSS, 37 °C, 15 minutes; washed, trypsinized; mean fluorescence intensity
# Conditions: one partner purified
binder,measurement,value
"{FITC-Ahx}-WSGENGPGFYDYEA (designed binder, Pep11, FITC labelled; also called FITC-Pep11; source: synthetic peptide (solid phase, Fmoc chemistry, HPLC purified)) [FITC conjugated Pep11]",fold fluorescence against the other peptides,1.5 fold
